What is called koff is the rate constant with which the complex falls apart. The low end stands for a long-lived complex, the high end for a short-lived complex.

For one molecule, koff results are on record in paper PMC7293033 (2020).

In this experiment the target is His-FGF2, LMW FGF2 (residues 135-288, C211S/C229S) (human, UniProt P09038 135-288, C211S | C229S). The experiment can be described thus: SPR. Background: In SPR one partner is held on a chip, and binding of the other changes the refractive index at the surface.
Sequence of His-FGF2, LMW FGF2 (residues 135-288, C211S/C229S) (P09038 135-288 C211S/C229S): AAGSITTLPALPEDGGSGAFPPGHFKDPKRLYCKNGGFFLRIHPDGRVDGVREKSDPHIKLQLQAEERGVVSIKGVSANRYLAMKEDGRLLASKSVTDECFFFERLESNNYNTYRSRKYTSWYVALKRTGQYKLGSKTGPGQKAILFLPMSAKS

B1: His-API5 (apoptosis inhibitor 5, residues 1-504, isoform 2), wild type (natural protein)
chain: MPTVEELYRNYGILADATEQVGQHKDAYQVILDGVKGGTKEKRLAAQFIPKFFKHFPELADSAINAQLDLCEDEDVSIRRQAIKELPQFATGENLPRVADILTQLLQTDDSAEFNLVNNALLSIFKMDAKGTLGGLFSQILQGEDIVRERAIKFLSTKLKTLPDEVLTKEVEELILTESKKVLEDVTGEEFVLFMKILSGLKSLQTVSGRQQLVELVAEQADLEQTFNPSDPDCVDRLLQCTRQAVPLFSKNVHSTRFVTYFCEQVLPNLGTLTTPVEGLDIQLEVLKLLAEMSSFCGDMEKLETNLRKLFDKLLEYMPLPPEEAENGENAGNEEPKLQFSYVECLLYSFHQLGRKLPDFLTAKLNAEKLKDFKIRLQYFARGLQVYIRQLRLALQGKTGEALKTEENKIKVVALKITNNINVLIKDLFHIPPSYKSTVTLSWKPVQKVEIGQKRASEDTTSGSPPKKSSAGPKRDARQIYNPPSGKYSSNLGNFNYERSLQGK
B1 yielded a koff of 0.00474 s⁻¹.
